In patent publication US20110046043A1 (NEW YORK UNIVERSITY, published 2011):
*1 amine or outer side, *2 acyl side, *3 side chain or, on linkers, in order; H or OH if unused. Where no end group is shown, it is not given here. [ ]: non-standard residue; d: D form. Suc = O=C(CCC(=O)[*:2])[*:1]

Columns and labels:
IZN17 (peptide 11, …) [1] = target: T1, IZN17 (peptide 11, AcIKKEIEAIKKEQEAIKKKIEAIEKLLQLTVWGIKQLQARIL-NH2) (N-terminal acetyl (Ac); C-terminal amide (NH2)); assay: fluorescence polarization competition, displacement of peptide 12 from IZN17; upper limit of the assay
T1 construct: also called peptide IZN17; 1ZN17
T1 chain: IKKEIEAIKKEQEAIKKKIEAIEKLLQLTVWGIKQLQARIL

[2] = target: HIV-1 HXB2 envelope (gp41) expressed on CHO[HIVe] (clone 7d2) cells (HIV-1 (HXB2), UniProt P04578 512-856); assay: cell-based or functional assay
IZN17 (peptide 11, …) [3] = target: T1, IZN17 (peptide 11, …); assay: fluorescence polarization competition, displacement of peptide 12 from IZN17; compared with peptide 1
IZN17 (peptide 11, …) [4] = target: T1, IZN17 (peptide 11, …); assay: fluorescence polarization competition, displacement of peptide 12 from IZN17
IZN17 (peptide 11, …) [5] = target: T1, IZN17 (peptide 11, …); assay: fluorescence polarization competition, displacement of peptide 12 from IZN17; value inexact because the peptide aggregates
IZN17 (peptide 11, …) [6] = target: T1, IZN17 (peptide 11, …); assay: fluorescence polarization competitive binding assay with peptide 12 as probe
IZN17 (peptide 11, …) [7] = target: T1, IZN17 (peptide 11, …); assay: fluorescence polarization, direct saturation binding of fluorescein-labeled peptide 12 to IZN17, PBS, 25° C.

HIV-1 HXB2 envelope (gp41) expressed on CHO[HIVe] (clone 7d2) cells, sequence (P04578 512-856): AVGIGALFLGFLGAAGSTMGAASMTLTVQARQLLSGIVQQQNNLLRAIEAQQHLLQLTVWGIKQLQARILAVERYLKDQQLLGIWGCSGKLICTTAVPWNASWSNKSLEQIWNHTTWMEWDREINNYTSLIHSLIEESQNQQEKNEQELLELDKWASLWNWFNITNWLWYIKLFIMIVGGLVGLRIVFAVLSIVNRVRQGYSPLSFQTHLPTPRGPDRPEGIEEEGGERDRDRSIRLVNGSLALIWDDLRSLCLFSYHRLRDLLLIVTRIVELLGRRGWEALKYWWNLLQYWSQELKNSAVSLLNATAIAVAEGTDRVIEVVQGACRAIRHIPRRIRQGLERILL

B1: HBS α-helix 9 (XMTWEEWDKKIEEYTKKI) (peptide)
peptide: XMTWEEWDKKIEEYTKKI
modifications: X at position 1 is a pentenoic acid residue; internally-constrained α-helical region (hydrogen bond surrogate, carbon-carbon bond by ring-closing metathesis) spanning residues 1 through 4 of SEQ ID NO: 9
notes: also called peptide 9
Kd (IZN17 (peptide 11, …) [1]): < 5 µM | inhibition of gp41-mediated cell-cell fusion (syncytium formation, β-galactosidase activity), EC50 [2]: 43 µM

B2: HBS α-helix 2 (XMTWMEWDREINNYT) (peptide)
peptide: [Pentenoic acid]MTWMEWDREINNYT
modifications: staple (positions not given here); not fully specified (C-terminus, bridges)
notes: HBS-constrained form of peptide 1; made on Rink amide resin; also called peptide 2
inhibition of gp41-mediated cell-cell fusion (syncytium formation, β-galactosidase activity) [2]: > 200 | binding result (IZN17 (peptide 11, …) [3]): binds

B3: HBS α-helix 7 (XEMAWEEWDKKIEEYT) (peptide)
peptide: XEMAWEEWDKKIEEYT
modifications: X at position 1 is a pentenoic acid residue; N-terminal hydrogen bond surrogate (carbon-carbon bond by ring-closing metathesis in place of an i and i+4 hydrogen bond)
notes: Thr-627 replaced with alanine; a glutamic acid added at the N-terminus; also called peptide 7
fold lower affinity than HBS α-helix 6 (IZN17 (peptide 11, …) [4]): 20 fold | inhibition of gp41-mediated cell-cell fusion (syncytium formation, β-galactosidase activity) [2]: > 200

B4: Peptide 10 (AcMTWEEWDKKIEEYTKKI-NH2) (peptide)
peptide: Ac-MTWEEWDKKIEEYTKKI-NH2
notes: Unconstrained counterpart of HBS α-helix 9; also called unconstrained peptide 10
binding result (IZN17 (peptide 11, …) [4]): binds

B5: Peptide 1 (AcMTWMEWDREINNYT-NH2), 14-residue C-peptide derived from gp41 (peptide)
peptide: Ac-MTWMEWDREINNYT-NH2
notes: Unconstrained parent peptide; also called unconstrained C-peptide
Kd (IZN17 (peptide 11, …) [5]): 37 µM

B6: HBS α-helix 6 (XMTWEEWDKKIEEYT) (peptide)
peptide: XMTWEEWDKKIEEYT
modifications: X at position 1 is a pentenoic acid residue; N-terminal hydrogen bond surrogate (carbon-carbon bond by ring-closing metathesis in place of an i and i+4 hydrogen bond)
notes: also called peptide 6
binding result (IZN17 (peptide 11, …) [4]): binds | inhibition of gp41-mediated cell-cell fusion (syncytium formation, β-galactosidase activity) [2]: > 200

B7: HBS α-helix 8 (XNEMTWEEWDKKIEEYT) (peptide)
peptide: XNEMTWEEWDKKIEEYT
modifications: X at position 1 is a pentenoic acid residue; N-terminal hydrogen bond surrogate (carbon-carbon bond by ring-closing metathesis in place of an i and i+4 hydrogen bond)
notes: also called peptide 8
Kd (IZN17 (peptide 11, …) [1]): < 5 µM | inhibition of gp41-mediated cell-cell fusion (syncytium formation, β-galactosidase activity) [2]: > 200

B8: HBS α-helix 4 (XAAAWEEWDKKI) (peptide)
peptide: XAAAWEEWDKKI
modifications: X at position 1 is a pentenoic acid residue; N-terminal hydrogen bond surrogate (carbon-carbon bond by ring-closing metathesis in place of an i and i+4 hydrogen bond)
notes: Trp/Trp/Ile motif lies outside of the constraint; also called peptide 4
binding result (IZN17 (peptide 11, …) [6]): no binding | inhibition of gp41-mediated cell-cell fusion (syncytium formation, β-galactosidase activity) [2]: > 200

B9: HBS α-helix 3 (XWAAWDKKI) (peptide)
peptide: XWAAWDKKI
modifications: X at position 1 is a pentenoic acid residue; N-terminal hydrogen bond surrogate (carbon-carbon bond by ring-closing metathesis in place of an i and i+4 hydrogen bond)
notes: Shortest designed peptide with the Trp/Trp/Ile motif; also called peptide 3
binding result (IZN17 (peptide 11, …) [6]): no binding | inhibition of gp41-mediated cell-cell fusion (syncytium formation, β-galactosidase activity) [2]: > 200

B10: HBS α-helix 5 (XWAAWDREINNYT) (peptide)
peptide: XWAAWDREINNYT
modifications: X at position 1 is a pentenoic acid residue; N-terminal hydrogen bond surrogate (carbon-carbon bond by ring-closing metathesis in place of an i and i+4 hydrogen bond)
notes: Similar to 1 and 2 but missing N-terminal Met-626 and Thr-627; also called peptide 5
binding result (IZN17 (peptide 11, …) [6]): no binding | inhibition of gp41-mediated cell-cell fusion (syncytium formation, β-galactosidase activity) [2]: > 200

B11: Fluorescein-labeled peptide 12 (suc-MTWMEWDREINNYTC^Flu) (peptide)
peptide: Suc-MTWMEWDREINNYTC(fluorescein)-NH2
notes: also called fluorescent probe 12; fluorescein-labeled C-peptide derivative
Kd (IZN17 (peptide 11, …) [7]): 24 µM
